{"source": "patent US20090166224A1", "about": "(published 2009)", "binders": {"B1": {"name": "wheat germ agglutinin (WGA), agarose-bound (other, UniProt P10968 27-197, looked up)", "chain": "QRCGEQGSNMECPNNLCCSQYGYCGMGGDYCGKGCQNGACWTSKRCGSQAGGATCTNNQCCSQYGYCGFGAEYCGAGCQGGPCRADIKCGSQAGGKLCPNNLCCSQWGFCGLGSEFCGGGCQSGACSTDKPCGKDAGGRVCTNNYCCSKWGSCGIGPGYCGAGCQSGGCDG", "modifications": "immobilized on agarose", "notes": "Lectin; released with N-acetyl-glucosamine; Coated on the plate in the lectin ELISA"}}, "assay_in_all_cases": "human serum on Con A/WGA/Jacalin column, lectin-specific displacer fraction, LC-MS/MS; grade = SEQUEST rank group (+ = ranks 1-5, ++++ = 16-20)", "key": {"[1]": {"molecular_target": "T1, INTER-ALPHA-TRYPSIN INHIBITOR HEAVY CHAIN H1 (human, UniProt P19827 35-672)", "T1 construct": "from human serum; also called ITH1", "T1 sequence (looked up)": "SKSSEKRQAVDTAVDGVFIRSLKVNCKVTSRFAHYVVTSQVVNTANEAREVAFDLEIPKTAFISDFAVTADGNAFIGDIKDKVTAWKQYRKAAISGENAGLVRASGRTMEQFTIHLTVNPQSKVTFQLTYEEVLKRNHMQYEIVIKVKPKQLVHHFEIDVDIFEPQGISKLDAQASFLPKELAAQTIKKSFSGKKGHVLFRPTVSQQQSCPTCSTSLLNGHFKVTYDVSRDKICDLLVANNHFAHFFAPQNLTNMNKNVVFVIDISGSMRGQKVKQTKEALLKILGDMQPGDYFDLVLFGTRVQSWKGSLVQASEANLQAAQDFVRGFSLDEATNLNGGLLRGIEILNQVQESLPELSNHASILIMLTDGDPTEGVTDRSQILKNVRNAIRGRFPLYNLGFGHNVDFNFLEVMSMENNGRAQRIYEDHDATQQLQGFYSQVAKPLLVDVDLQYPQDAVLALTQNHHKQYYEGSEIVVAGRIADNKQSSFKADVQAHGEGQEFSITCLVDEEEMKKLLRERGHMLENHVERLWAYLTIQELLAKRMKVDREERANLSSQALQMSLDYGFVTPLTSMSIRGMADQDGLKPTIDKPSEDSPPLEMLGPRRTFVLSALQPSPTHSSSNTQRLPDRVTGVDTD"}, "[2]": {"molecular_target": "T2, HEMOPEXIN (human, UniProt P02790 24-462)", "T2 construct": "from human serum", "T2 sequence (looked up)": "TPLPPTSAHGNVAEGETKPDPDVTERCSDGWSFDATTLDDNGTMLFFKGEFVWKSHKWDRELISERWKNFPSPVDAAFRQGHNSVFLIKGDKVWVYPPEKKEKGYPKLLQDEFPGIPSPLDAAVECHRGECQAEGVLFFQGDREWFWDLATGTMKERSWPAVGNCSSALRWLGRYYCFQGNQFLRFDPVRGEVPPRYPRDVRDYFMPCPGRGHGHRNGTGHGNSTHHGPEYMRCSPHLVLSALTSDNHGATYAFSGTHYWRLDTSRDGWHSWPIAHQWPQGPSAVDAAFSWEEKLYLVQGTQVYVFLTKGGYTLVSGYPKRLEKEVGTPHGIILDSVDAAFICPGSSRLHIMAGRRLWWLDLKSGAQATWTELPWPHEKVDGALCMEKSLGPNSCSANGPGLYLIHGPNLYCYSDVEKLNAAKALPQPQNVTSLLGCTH"}, "[3]": {"molecular_target": "T3, CARBOXYPEPTIDASE N 83 KDA CHAIN (human, UniProt P22792 22-545)", "T3 construct": "from human serum; also called CBP8", "T3 sequence (looked up)": "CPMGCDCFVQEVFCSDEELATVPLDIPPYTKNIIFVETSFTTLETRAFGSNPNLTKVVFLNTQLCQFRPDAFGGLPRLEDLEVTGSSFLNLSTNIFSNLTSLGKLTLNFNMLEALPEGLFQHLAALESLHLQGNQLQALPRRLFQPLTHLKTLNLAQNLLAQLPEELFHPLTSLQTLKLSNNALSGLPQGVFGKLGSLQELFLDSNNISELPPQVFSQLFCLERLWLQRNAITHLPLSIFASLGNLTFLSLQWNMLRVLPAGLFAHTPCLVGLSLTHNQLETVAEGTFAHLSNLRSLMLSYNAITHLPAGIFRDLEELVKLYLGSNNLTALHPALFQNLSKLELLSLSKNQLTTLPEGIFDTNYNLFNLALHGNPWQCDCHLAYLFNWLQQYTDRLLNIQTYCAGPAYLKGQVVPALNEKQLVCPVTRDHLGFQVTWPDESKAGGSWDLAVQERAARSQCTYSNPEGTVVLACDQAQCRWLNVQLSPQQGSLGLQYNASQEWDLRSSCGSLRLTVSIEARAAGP"}, "[4]": {"molecular_target": "T4, PLASMA PROTEASE C1 INHIBITOR (human, UniProt P05155 23-500)", "T4 construct": "from human serum; also called IC1", "T4 sequence (looked up)": "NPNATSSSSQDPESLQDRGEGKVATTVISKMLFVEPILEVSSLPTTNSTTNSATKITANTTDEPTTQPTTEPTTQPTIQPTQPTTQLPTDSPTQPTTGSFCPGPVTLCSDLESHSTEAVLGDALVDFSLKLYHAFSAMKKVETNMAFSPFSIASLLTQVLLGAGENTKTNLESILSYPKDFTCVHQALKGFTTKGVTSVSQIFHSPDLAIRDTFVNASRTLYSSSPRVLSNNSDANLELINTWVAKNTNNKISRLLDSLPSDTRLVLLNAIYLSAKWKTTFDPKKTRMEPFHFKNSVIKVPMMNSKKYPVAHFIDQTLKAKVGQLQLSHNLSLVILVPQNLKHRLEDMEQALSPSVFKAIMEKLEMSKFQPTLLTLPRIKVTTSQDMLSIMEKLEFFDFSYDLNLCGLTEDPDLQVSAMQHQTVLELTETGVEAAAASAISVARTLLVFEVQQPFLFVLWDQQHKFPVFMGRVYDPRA"}}, "data": [{"binder": "B1", "values": [{"measurement": "SEQUEST ranking (relative abundance in the WGA displacement fraction)", "setting": "[1]", "value": "11 to 15", "unit": "rank"}, {"measurement": "SEQUEST ranking (relative abundance in the WGA displacement fraction)", "setting": "[2]", "value": "1 to 5", "unit": "rank"}, {"measurement": "SEQUEST ranking (relative abundance in the WGA displacement fraction)", "setting": "[3]", "value": "6 to 10", "unit": "rank"}, {"measurement": "SEQUEST ranking (relative abundance in the WGA displacement fraction)", "setting": "[4]", "value": "16 to 20", "unit": "rank"}]}]}
